Holding throughout (conditions): both partners purified
In assay [1] the target is SARS-CoV-2 Spike protein S1 (SARS-CoV-2, Wuhan-Hu-1 (P0DTC2), UniProt P0DTC2). Description: BLI.
In assay [2] the target is T1, SARS-CoV-2 Spike protein receptor binding domain (RBD) (Severe acute respiratory syndrome …, UniProt P0DTC2). The assay can be described thus: BLI.
For assay [3], the target named is SARS-CoV-2 Spike protein S2 (SARS-CoV-2, Wuhan-Hu-1 (P0DTC2), UniProt P0DTC2). Description: BLI. (BLI is a label-free optical method that tracks binding on a fibre tip over time.)
For assay [4], the target named is T1, SARS-CoV-2 Spike protein receptor …. Description: ELISA.

In general, Kd refers to the constant that tells how readily two partners part at equilibrium.

B1: 1M-1D2 (human monoclonal antibody) (antibody, V domains shown)
VH: QVQLVESGGGLVQPGGSLRLSCAASGFTFSSYAMHWVRQAPGKGLEYVSAISGNGGSTYYAKSVKGRFTISRDNSKNTLYLQMGSLRAEDMAVYYCARGAEYYDFWSGYYSAYFDYWGQGTLVTVSS
VL: QAVVTQPPSASGTPGQRVTISCSGSSSNIGSNYVYWYQQLPGTAPKLLIYNNNQRPSGVPDRFSGSKSGTSASLAISGLRSEDEADYYCAAWDDSLIYVLFGGGTKLTVL
In assay [1], B1 had a Kd of 108 nM.

B2: 2M-10B11 (human monoclonal antibody) (antibody, V domains shown)
VH: EVQLVESGGGLVQPGGSLRLSCAASGFTVSSNYMSWVRQAPGKGLEWVSVIYSGGSTYYADSVKGRFTISRDNSKNTLYLQMNSLRAEDTAVYYCARATWLRGVMDVWGQGTTVTVSS
VL: QSALTQPHSVSESPGKTVTISCTGSSGSIASNYVQWYQQRPGSAPTTVIYEDNQRPSGVPDRFSGSIDSSSNSASLTISGLKTEDEADYYCQSYDSSNHWVFGGGTKLTVL
notes: ELISA group 2B; also called mAb 2M-10B11
Turning to B2, the Kd in assay [2] turned out to be 24.3 nM.

B3: 9A1 (human monoclonal antibody) (antibody, V domains shown)
VH: EVQLLESGGGVVQPGRSLRLSCVVSGFTFNNYGMHWVRQAPGKGLEWVAVISYEGSVKYYGDHVDGRFTISRDPFKNTLYLHMNNLRPDDTAVYYCAKVSAIFWLGQGLSPIDVWGQGTTVTVSS
VL: DIVMTQSPATLSASPGERVTLSCRASQNIRNNLAWYQQKPGQAPRLLIHGASTRAAGAPARFSGSGSDTQFTLTVSSLQSEDFAVYYCHQYSKWPVTFGGGTKVDIK
notes: also called mAb 9A1
As for B3, the Kd in assay [3] is < 0.001 nM.

B4: 4A8 (human monoclonal antibody) (antibody, V domains shown)
VH: EVQLVESGAEVKKPGASVKVSCKVSGYTLTELSMHWVRQAPGKGLEWMGGFDPEDGETMYAQKFQGRVTMTEDTSTDTAYMELSSLRSEDTAVYYCATSTAVAGTPDLFDYYYGMDVWGQGTTVTVSS
VL: EIVMTQSPLSSPVTLGQPASISCRSSQSLVHSDGNTYLSWLQQRPGQPPRLLIYKISNRFSGVPDRFSGSGAGTDFTLKISRVEAEDVGVYYCTQATQFPYTFGQGTKVDIK
For B4, binding in assay [1] was characterised by a dissociation constant (Kd) of 92.7 nM. For the same molecule, the binding result in assay [4] was “no binding”.

B5: 0304-3H3 (human monoclonal antibody) (antibody, V domains shown)
VH: EVQLVESGPGLVKPSETLSLTCTASGGSISTYYWSWIRQPPGKGLEWIGYIYYSGSTNYNPSLKSRVTISVDTSKNQFSLKLSSVTAADTAVYYCARDRIAPVGKFFGWYFDLWGRGTLVTVSS
VL: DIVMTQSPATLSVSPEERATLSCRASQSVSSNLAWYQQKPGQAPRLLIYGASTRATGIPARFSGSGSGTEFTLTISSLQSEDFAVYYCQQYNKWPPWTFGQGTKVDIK
notes: also called mAb 0304-3H3
In assay [3], B5 returned a Kd of 4.52 nM.
